This is an account of results in patent publication EP3366704A1 (Affimed GmbH, dated 2018).

Assay [1] addresses T1, human CD3 (on Jurkat cells or primary human T-cells) (human, UniProt P07766 23-207).
T1 construct: whole, on cells; CD3 is a complex of several chains; also called Human CD3^+ Jurkat; Human CD3^+ primary T-cells
Kind of assay: flow cytometry on human CD3+ Jurkat cells, on ice. (In general: A flow cytometer gives signals particle by particle.)

For assay [2], the target named is T2, cynomolgus CD3 (on HSC-F cells) (cynomolgus, UniProt Q95LI5 22-198).
T2 construct: whole, on cells; CD3 is a complex of several chains; also called Cyno CD3^+ HSC-F
Put plainly: flow cytometry on cynomolgus CD3+ HSC-F cells, on ice.

The target in assay [3] is T3, MMP1-003 peptide/HLA-A2 complex (on MMP1-003 peptide-pulsed T2 cells or HLA-A2+/MMP1+ tumor cells) (human).
T3 construct: whole, on cells; T2 cells were pulsed with 100 uM peptide for 15 h at 37 C; also called MMP1/HLA-A2; HLA-A2^MMP1-003
Kind of assay: flow cytometry on MMP1-003 peptide-pulsed T2 cells, mean of two experiments.

For assay [4], the target named is T3, MMP1-003 peptide/HLA-A2 complex (on …). Put plainly: cell-based or functional assay.
The target is the same in assay [5]. Kind of assay: cell-based or functional assay. This is another data set of the same source.
Assay [6] concerns the target T4, CD16A (FcgammaRIIIA) on primary human NK-cells (human, UniProt P08637 17-254).
T4 construct: whole, on cells; also called CD16^+ NK-cells; CD16A^+ cells
Put plainly: flow cytometry on primary human NK-cells, on ice, one-site binding fit, mean of two experiments.

The target of assay [7] is T3, MMP1-003 peptide/HLA-A2 complex (on …). Put plainly: cell-based or functional assay. This is another data set of the same source.
Assay [8] has the same target. Kind of assay: cell-based or functional assay. This is another data set of the same source.
The target is the same in assay [9]. Kind of assay: flow cytometry on MMP1-003 peptide-pulsed T2 cells.
The target in assay [10] is T1, human CD3 (on Jurkat cells or primary …). Kind of assay: flow cytometry on human CD3+ Jurkat cells, on ice, one-site binding fit, mean of 2 experiments.
The target is the same in assay [11]. Kind of assay: flow cytometry on human CD3+ primary T-cells, on ice, one-site binding fit, mean of 2 experiments.
In assay [12] the target is T2, cynomolgus CD3 (on HSC-F cells). Put plainly: flow cytometry on cynomolgus CD3+ HSC-F cells, on ice, one-site binding fit, mean of 2 experiments.
The target in assay [13] is T5, HLA-A2 on non-pulsed T2 cells (no peptide added) (human).
T5 construct: whole, on cells
Kind of assay: flow cytometry on non-pulsed T2 cells, mean of two experiments.

T2 sequence (Q95LI5 22-198): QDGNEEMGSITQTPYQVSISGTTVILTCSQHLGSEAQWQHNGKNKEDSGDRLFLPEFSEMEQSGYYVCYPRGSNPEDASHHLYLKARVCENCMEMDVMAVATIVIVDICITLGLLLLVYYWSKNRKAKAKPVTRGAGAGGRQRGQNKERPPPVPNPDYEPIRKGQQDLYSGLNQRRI
T1 sequence (P07766 23-207): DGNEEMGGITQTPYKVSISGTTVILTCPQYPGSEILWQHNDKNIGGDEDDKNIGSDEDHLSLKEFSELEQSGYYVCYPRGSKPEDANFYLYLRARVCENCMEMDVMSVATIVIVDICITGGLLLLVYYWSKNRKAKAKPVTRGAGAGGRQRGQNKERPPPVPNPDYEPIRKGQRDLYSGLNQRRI
T4 sequence (P08637 17-254): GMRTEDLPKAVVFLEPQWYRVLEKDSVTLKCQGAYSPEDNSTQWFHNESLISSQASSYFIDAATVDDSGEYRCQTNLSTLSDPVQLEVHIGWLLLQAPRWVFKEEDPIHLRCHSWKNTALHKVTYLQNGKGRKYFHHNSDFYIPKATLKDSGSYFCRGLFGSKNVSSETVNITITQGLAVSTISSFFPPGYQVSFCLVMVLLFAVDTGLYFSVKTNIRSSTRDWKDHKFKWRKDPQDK

B1: scFv B05 (anti-HLA-A2^MMP1-003 single chain Fv) (scFv)
scFv: QVQLVQSGAEAKKPGESLRISCRASGYMFSTFWIGWVRQMPGKGLEWVASIYPGDSNTIYSPSFQGQVTISADKSINTTYLQWSGLKASDTATYYCAKIRDGYSYDAFDLWGQGTMVTVSSGGSGGSGGSGGSGGSGGSQSALTQPASVSGSPGQSITISCTGTSSDVGGYNYVSWYQQHPGKAPKLMIYDVSNRPSGVSNRFSGSKSGNTASLTISGLQAEDEADYYCSSYTSSSTLAYVFGTGTKLTVLAAAGSEQKLISEEDLNSHHHHHH
notes: also called B05 scFv; scFv_202.S
In the case of B1, the binding result in assay [1] and in [2] was “no binding” in each case. The affinity in [3], expressed as Kd, was 616 nM.

B2: TandAbCD16A 4 (anti-HLA-A2^MMP1-003/CD16A tandem diabody, target domain B05, variant 4) (bispecific antibody)
chain: QVQLVQSGAEAKKPGESLRISCRASGYMFSTFWIGWVRQMPGKGLEWVASIYPGDSNTIYSPSFQGQVTISADKSINTTYLQWSGLKASDTATYYCAKIRDGYSYDAFDLWGQGTMVTVSSGGSGGSGGSSYVLTQPSSVSVAPGQTATISCGGHNIGSKNVHWYQQRPGQSPVLVIYQDNKRPSGIPERFSGSNSGNTATLTISGTQAMDEADYYCQVWDNYSVLFGGGTKLTVLGGSGGSQVQLVQSGAEVKKPGESLKVSCKASGYTFTSYYMHWVRQAPGQGLEWMGAIEPMYGSTSYAQKFQGRVTMTRDTSTSTVYMELSSLRSEDTAVYYCARGSAYYYDFADYWGQGTLVTVSSGGSGGSGGSQSALTQPASVSGSPGQSITISCTGTSSDVGGYNYVSWYQQHPGKAPKLMIYDVSNRPSGVSNRFSGSKSGNTASLTISGLQAEDEADYYCSSYTSSSTLAYVFGTGTKLTVLAAAGSHHHHHH
notes: Non-covalent homodimer; C-terminal 6xHis tag
As to B2, the “Mean EC50 of target cell lysis, 4 h calcein-release assay, MMP1-003-pulsed T2 cells, human NK-cells E:T 5:1” value in [4] is 0.0088 nM. In assay [5], the “Mean EC50 of target cell lysis, 4 h calcein-release assay, B-CPAP (HLA-A2+/MMP1+), human NK-cells E:T 5:1” value is 4.8 nM and the “Mean EC50 of target cell lysis, 4 h calcein-release assay, SW-982 (HLA-A2+/MMP1+), human NK-cells E:T 5:1” value is 4.67 nM. Also, the Kd (usually the constant that tells how readily two partners part at equilibrium) in assay [6] is 5.3 nM.

B3: TandAbCD3 1 (anti-HLA-A2^MMP1-003/CD3 tandem diabody, target domain B05) (bispecific antibody)
chain: DIQMTQSPSSLSASVGDRVTITCRSSTGAVTTSNYANWVQQKPGKAPKALIGGTNKRAPGVPSRFSGSLIGDKATLTISSLQPEDFATYYCALWYSNLWVFGQGTKVEIKGGSGGSQVQLVQSGAEAKKPGESLRISCRASGYMFSTFWIGWVRQMPGKGLEWVASIYPGDSNTIYSPSFQGQVTISADKSINTTYLQWSGLKASDTATYYCAKIRDGYSYDAFDLWGQGTMVTVSSGGSGQSALTQPASVSGSPGQSITISCTGTSSDVGGYNYVSWYQQHPGKAPKLMIYDVSNRPSGVSNRFSGSKSGNTASLTISGLQAEDEADYYCSSYTSSSTLAYVFGTGTKLTVLGGSGGSEVQLVESGGGLVQPGGSLRLSCAASGFTFSTYAMNWVRQAPGKGLEWVGRIRSKYNNYATYYADSVKDRFTISRDDSKNSLYLQMNSLKTEDTAVYYCARHGNFGNSYVSYFAYWGQGTLVTVSSAAAGSHHHHHH
notes: Non-covalent homodimer of two identical polypeptides; Constructs carry a C-terminal 6xHis tag and an N-terminal signal peptide; also called TandAbCD3 1 T714; TandAb 1
As for B3, the “EC50 of target cell lysis, 4 h calcein-release cytotoxicity assay, MMP1-003-pulsed T2 cells, human T-cells E:T 25:1” value in [7] is 0.0007 nM. Also, the “Mean EC50 of target cell lysis, 4 h calcein-release assay, B-CPAP (HLA-A2+/MMP1+), human T-cells E:T 25:1” value in [8] was 0.237 nM. The “Mean EC50 of target cell lysis, 4 h calcein-release assay, SW-982 (HLA-A2+/MMP1+), human T-cells E:T 25:1” value in assay [8] was 0.156 nM. Further, the “fold higher apparent affinity relative to the B05 single chain Fv (scFv)” value in assay [9] was greater than 200 fold. The Kd in assay [3] came to 3 nM; in assay [10], 1.1 nM; in assay [11], 1.7 nM; in assay [12] it was 1.3 nM.

B4: TandAbCD3 2 (anti-HLA-A2^MMP1-003/CD3 tandem diabody, target domain A02) (bispecific antibody)
chain: DIQMTQSPSSLSASVGDRVTITCRSSTGAVTTSNYANWVQQKPGKAPKALIGGTNKRAPGVPSRFSGSLIGDKATLTISSLQPEDFATYYCALWYSNLWVFGQGTKVEIKGGSGGSEVQLVESGGGVVQPGRSLRLSCAASGFTFSSYAMHWVRQAPGKGLEWVAVISYDGSNKYYADSVKGRFTISRDNSKNTLYLQMNSLRTEDTAVYYCARDGGYYHYGLDVWGQGTTVTVSSGGSGSYELTQPPSVSVSPGQTASITCSGDKLGDKYASWYQRKPGQSPVLLIYQDAKRPSGIPERFSGSNSGNTATLTISGTQAMDEADYYCQAWDSSTGVFGGGTKLTVLGGSGGSEVQLVESGGGLVQPGGSLRLSCAASGFTFSTYAMNWVRQAPGKGLEWVGRIRSKYNNYATYYADSVKDRFTISRDDSKNSLYLQMNSLKTEDTAVYYCARHGNFGNSYVSYFAYWGQGTLVTVSSAAAGSHHHHHH
notes: Non-covalent homodimer; C-terminal 6xHis tag; also called TandAbCD3 2 T717; T717
B4: the “EC50 of target cell lysis, 4 h calcein-release cytotoxicity assay, MMP1-003-pulsed T2 cells, human T-cells E:T 25:1” value in assay [7] is 0.0009 nM. Besides, the “Mean EC50 of target cell lysis, 4 h calcein-release assay, B-CPAP (HLA-A2+/MMP1+), human T-cells E:T 25:1” value in assay [8] was 0.0669 nM. In [8], the “Mean EC50 of target cell lysis, 4 h calcein-release assay, SW-982 (HLA-A2+/MMP1+), human T-cells E:T 25:1” value is 0.0302 nM. Moreover, the “fold higher apparent affinity than the corresponding scFv A02” value in assay [9] is greater than 2 fold. In addition, the Kd is greater than 500 nM in assay [13]; 39.2 nM in assay [3]; 3.6 nM in assay [10]; 2.2 nM in assay [11]; 2.8 nM in assay [12].

B5: scFv A02 (anti-HLA-A2^MMP1-003 single chain Fv) (scFv)
scFv: EVQLVESGGGVVQPGRSLRLSCAASGFTFSSYAMHWVRQAPGKGLEWVAVISYDGSNKYYADSVKGRFTISRDNSKNTLYLQMNSLRTEDTAVYYCARDGGYYHYGLDVWGQGTTVTVSSGGSGGSGGSGGSGGSGGSSYELTQPPSVSVSPGQTASITCSGDKLGDKYASWYQRKPGQSPVLLIYQDAKRPSGIPERFSGSNSGNTATLTISGTQAMDEADYYCQAWDSSTGVFGGGTKLTVLAAAGSEQKLISEEDLNSHHHHHH
notes: also called A02 scFv; scFv_203.S
Regarding B5, the binding result in [1] and in assay [2] was “no binding” throughout. Also, the Kd in assay [3] was 108 nM.
